{"source": "the DeepSol protein solubility set", "data": [{"experiment": "soluble on expression in E. coli; label from the status in PepcDB or PDB records", "values": [{"sequence": "MVKLFIGNLPREATEQEIRSLFEQYGKVLECDIIKNYGFVHIEDKTAAEDAIRNLHHYKLHGVNINVEASKNKSKASTKLHVGNISPTCTNQELRAKFEEYGPVIECDIVKDYAFVHMERAEDAVEAIRGLDNTEFQGKRMHVQLSTSRLRTAPGMGDQSGCYRCGKEGHWSKECPVDRTGRVADFTEQYNEQYGAVRTPYTMGYGESMYYNDAYGALDYYKRYRVRSYEAVAAAAAASAYNYAEQTMSHLPQVQSTTVTSHLNSTSVDPYDRHLLPNSGAAATSAAMAAAAATTSSYYGRDRSPLRRAAAMLPTVGEGYGYGPESELSQASAATRNSLYDMARYEREQYVDRARYSAF", "soluble on expression in E. coli": "soluble"}, {"sequence": "MLEDLRLYQLISPSLPVGSFTYSQGLEWAIEKGWVTNVTELKHWLSNQLMDSLATLELPVLAKLTQLLQQEEWQQAQDWCDFIIANRETKELRLEERQRGLAFSMLLPKLGIELNQTTLPMVKQTQVAAFALAANHWNLTPTKLAAAYAWGWLENAVIVGIKLVPLGQSAGQQLLLEMADVIPQAVEKSQHWPEHLIGSFTPAQVLASSRHESQYTRLFRSLEHHHHHH", "soluble on expression in E. coli": "soluble"}, {"sequence": "MVTKEVGHDFLARLGKKRLRPGGVEATNWLIEQGQFSQDCHVLEVACNRCTTAIELAKTFGCQIDAVDLNPKVVKEAQERVAVEGLTRHITVSQASALSLPFPDNHFDIVINEAMLTMLNAQAKEKALNEYWRVLKPGGRLLTHDVAYEDPKTRQVLDELRQTIHVNVAPLSLTGWQALYQEHGFSQVTYHHGKMSLMTPRGMIKDEGLMNTLNIMRRGLKKENRQQFLKMRRFFTRTGKNLCYIAVKSVK", "soluble on expression in E. coli": "not soluble"}, {"sequence": "MGHHHHHHSHMISSNIREARTVILPRLMLEITSNGTLTVASHTPIFQKLSLLDLPSLTAHLKTKLSGSMFKGFLFATLCETEDHVTTLDMHPHVFEKRLVLYNPRNTCNKELCALISMVENLMDCDPKLPLSIYMRGKRLFQKNPGKDSCFLFKGLSTLISTHFAVYHPNFTVNDELLLPPLLAYKMHSTIEGIDEVSKGLLKAIYLDSYRMDNNIDDFQNPAGTFTLLCLPTIFTKHLTVPNVLILIKRAGLMYEAIDNIIL", "soluble on expression in E. coli": "not soluble"}, {"sequence": "MGHHHHHHSHCPQESVYCENKCGARMMRRLLAQHATSECPKRTQPCTYCTKEFVFDTIQSHQYQCPRLPVACPNQCGVGTVAREDLPGHLKDSCNTALVLCPFKDSGCKHRCPKLAMARHVEESVKP", "soluble on expression in E. coli": "not soluble"}, {"sequence": "MSLISIVVLYYSRHGSTQALARQIARGVESVEGCQALLRTVAELDGTASNSDPYLSLDELKQCDGLALGSPVWFGNMAAPLKHFWDQTTPLWLSGALIDKPACVFTSSSTLHGGQETTQQSMMLPLLHHGMLILGIPYSEPALHTTQSGGTPYEGHHHHHH", "soluble on expression in E. coli": "not soluble"}, {"sequence": "MDMHSGTFNPQDFAWQGLTLTPAAAIHIRELVAKQPGMVGVRLGVKQTGCAGFGYVLDSVSEPDKDDLLFEHDGAKLFVPLQAMPFIDGTEVDFVREGLNQIFKFHNPKAQNECGCGESFGV", "soluble on expression in E. coli": "not soluble"}, {"sequence": "MGSDKIHHHHHHMTLTSDSWLTLIVSLPSASATARMRIWRAVKALGCAALRDGAYLLPAQAEQAAQLQMLADEALQEGGQAWLLQVQALDLAEQATFQALFDRTADYTPWLEELAQARQTLSALSAAELQRTQRKHARAYEVIRKIDFFPGETSIRADAQWRDFANALESMQSPGEPQPMAGRIARRDRMQYQGRVWATRRHLWVDRVASAWLIQRFIDPHARFLWLNTAADCPSDALGFDFDGATFSHVGERVTFEVLLASFGLEDDRGLSRLGAMVHALDVGGATTPEASGFEAVLAGARKRWPDDDALLVDIGGVLDSLHAHFSSSRKT", "soluble on expression in E. coli": "not soluble"}, {"sequence": "MAHHHHHHMLHEPVSTANGHMPRRSSLGCRLRSSPFLSCVAYVNTLTCDSLMHALRATVSQRIATGVDVECHRLTSGAAVVSTPTQVHISITSANFVRQRSSRPALLPLLTHPPPPSPSLHPVMSRSRQQQAAEVTLHHFFKTERVIRLECERREAKARLKLIDIMSGDLDDQLLCVAQFKKEWLQSRRVLEEARQAVVQEEGSKRAYVEEEYVRTINTMSRHYHPLSSRVV", "soluble on expression in E. coli": "not soluble"}, {"sequence": "MGSDKIHHHHHHMKQEFLHIASSLWATVAAQISRHTGQTFAPESLTPIGGGCINQTFCIRDHERQYFVKLNKAGNLAMFESEAAGLGEILDSASLRVPQPLCCGSHHDDAWLVLEFIDLQNRGNAAALGIGLANMHRHTAETFGWIRDNTIGSTPQRNATASDWISFWRQHRLGYQLNLARKNGHTGSLQSLGERLLSEFQHFFTDTLPLPSLLHGDLWGGNYAFDQDGQPVIFDPAVYYGDREADLAMTELFGGFPPDFQAAYRDTWPVETGYTTRKQLYNLYHILNHLNLFGPQYLSQAEITMKKLLAELY", "soluble on expression in E. coli": "not soluble"}, {"sequence": "MMARVEKLRELMKENNLQGFLVTSPYNLRYLTNFTGTTGLAMITLDKAFFVTDFRYTEQAAEQATGFTIVKNTGHIFDEVADLAERLQLDNLAFEETQVSFADYSLLEEILPCELVPVMGLIEELREVKDEEEVAIIEKACAIADQGFAFVLEMIKPGMTEIEVANQLDFFMRSKGASGVSFETIVASGLRSAMPHGVASHKVIEKGELITLDFGCYYEGYVSDMTRTFAIGSIQPKLKEIYDIVLEAQLKVLAEAKPGLTGIQLDAIARDHIASYGYGDAFGHSTGHGIGLEIHEGPNVSFRADKQFVPGNVITDEPGIYLPGIGGVRIEDDLLITAEGNRVLTHAPKELIIL", "soluble on expression in E. coli": "not soluble"}, {"sequence": "PKFHQAFAMINDAISDQSTFRLSCNEALIHRITPTNTISICADTDLPSLLNDLRLKQIDLIISPTTIHNPSFISESVFEEPMVVICRQDHPRIAGKIEQERFYSEKHCRFVGDEDFPVSNTEIHQPGLQERDVEMMTTSLSGMMLYVAKHDCLGVLPLSLAQKWQSALNLQVIQTPMLSEPVSYKLIFHKRDESSTSHQRLRAWARDQFATGLNA", "soluble on expression in E. coli": "not soluble"}, {"sequence": "PNSKLARFHASSGTTGKPTVVGYTHKDIDNWAESLARALTSVGVGKEDILQVSYGYGLFTGGLGAHYGSEKVGATVLPTSSGNTERQLELMKDLGTTSIACTPSYFLYMIETARKEGINIRNDTKLRKGFFGAEPWSEELKRRIEEESGIKAYDIYGTSELSGPLFTECDEQ", "soluble on expression in E. coli": "not soluble"}, {"sequence": "MSLSDYKVGEELSDKEGVEYFKELSKRPVQEWPNKNLSINDVPKGKQGDLIRYGIELLSKTESTLGPYSKLKKTSNEVNCISCHMDNDGNGLPGTKKYVIPFLNILNNYPRLDIETMKIISVEDRIRGMGGTDSHRFPNDSKEMKAILAYFKWLKEAYGIKDGVKLEGDFFAKMNFPNRPADPVRGKKLFEENCVACHGERGLGVKNDNYEQGSGHLYPSLLIYPDGGHMAMIPFLARFLKSAMPFGASADNPILSDEDALDIAAYVNTGFVRMPITTTENRAGLDTAYSKSPSLKPEYFASPQQNLDPKEYIKVKYGPWKNPNHFPGEGHHHHHH", "soluble on expression in E. coli": "soluble"}, {"sequence": "MKILLEVKYMTKFQVAYVPVGVPTFHLESAQKEFEKSIDLLNTITDAAIVPDKMLLSIQDLTNFLDTIEPSLIILQNITFANAAYASEVLKRFSCPVLLWTLREPVIDGGRLRLNSLTGAYSAGNALAAFRDGNFEYIFGAPQEERTKKTISACIRAAWLKNELKNLRIASVGHTPQGFGFGRAMDADMQKVFGATLESIEVRELIDMAKGYTDDECSEYLDKMTKCTVGLDKTPDNNRKDFARLCKAYKEYVDENNIGALSSRCWPDFFTAFGTPVCGVLAMLNDMGVAASCEADTYGALSMYMGMKLSEQAVFFGDPVSLDESENTITFWHCGTAACSIAREDTGATIGVHPNRKIGPVMDFGCKAADKVTVFRVGQKADGSFRFFVTTGSALDKPKQFCGTSIVVRTDKNSYDIVNQSVKDGWEPHFVVIYGDCSDELKVLGHMLEIEVCEY", "soluble on expression in E. coli": "not soluble"}, {"sequence": "MAHHHHHHMRTSRGFCMSMWDSPAFEHNPLSRYWKRMMKQNGETLTAQSIPRHIHGYIEASCPRTEGLVRWFPYKKEITVDGRYVPTISDAIYSYYFPRELNDDERVKYVAIKTGRSELEVAEEVFLMRKMKLFVAQLLRNKLRSRPLRMPEGVDYSGIERRYTLGISRVAQAMGMSMYGTQSYDPVIVYSPYCDIGDCIDCICTKQLRTATQYLLCEVAVHRGIARSRMTDVTSEPKEPLSHVEPCLFEFIKLRLAILALVAKQEHYVVDHLFDGGHRYGGCLIHLFPSPLDPEIIDHEVNHIELDLDLAQKWMKHYYDHYVAPRRSG", "soluble on expression in E. coli": "not soluble"}, {"sequence": "MGSDKIHHHHHHMDVRRPIREAVNNRRKPKFLSVSFNQDDSCFSVALENGFRIFNTDPLTSKLSKTFKESATNQSRGTGIGYTRMLYRTNYIALVGGGKRPRHALNKLIIWDDLLQKETITLKFMSSIKDVFLSRIHIVVVLENTIEIFQFQTNPQRICPILDIPPNGSVDYVVCSSKHLQSQASQSQSKILEIIAFPSNKCVGQIQVADLSQIKYNSQNPKESALLPTSIIKAHKNPIKLVRLNRQGTMVATCSVQGTLIRIFSTHNGTLIKEFRRGVDKADIYEMSFSPNGSKLAVLSNKQTLHIFQIFETTNTETNTPDHSRANGSSHPLKNYIPKGLWRPKYLDSVWSICNAHLKNPIFDAHRNDNSGDVTHDNEFYKDRCRIGWCQDSNNREQDDSLVLVWQNSGIWEKFVILEKEQQDSSKTHYSLNESLRNEDTKSAGEPTRWELVRESWREL", "soluble on expression in E. coli": "not soluble"}, {"sequence": "MVLALITLVVSAFLIPEVLADPCGDSNWRYFPQTNSCYKLIDENLPWTIAEFKCLFQGAHHVSIDSPEENQFVHELSRWSEIWTGAAFFGKDQHYVNSDGSRYGNFENWKDGRKPPMNRARRCIKMDGNGEWFQSCCKKKTFTICEKKAAYSASSYSGSNNSVNGFRFMRHRS", "soluble on expression in E. coli": "not soluble"}, {"sequence": "MKLSTAFLTFSAVFLYGSAQQLLYLNSFKGMRVNNDMYEWCNIYISAQSDDTSFLASVYIVTAKNSKSLLNIMQDNLQNTGEIQGYPVDPPAYLTTSLSDNEMKQLNGVIYLSSAGQRVDSTFHVYDIYQARKMNIIANGYSTFLFLNSNMQTKPSRSSIISDWNQIKGSSGLLYAGFPLDSKVNVYPIFSNPITIQNSEVLFPNVETFSLSLAAFYITTNNGFSFKIKPGYYNINGTNTTSVYSTTGFYMKPAGEDDSTIVVNIENDIRCSGTSGASVVGHFPTGGNVTVGFYNGMAKYEQSAPPEDYPSYNPWTIPFIGQHFKVSSTNGTAGQYYVQYFVNQRPPRQTTPPETTTKSAGAVKLFTSVVTLLMYWL", "soluble on expression in E. coli": "not soluble"}, {"sequence": "MVKFMAIGTPLLKGSIKFLLLGSGELGKEVVIEAQRLGIECIAVDRYQNAPAMQVAHKSYVIDMKDYDALMAIIEREEPDYIVPEIEAINTDALIDAEKMGYTVIPTAEATKITMNRELIRRLAAEKLGLKTAKYEFADSLEELRDAVEKLGLPCVVKPIMSSSGKGQSVVRSEEDIEKAWKIAKEGARGIGNRVIVEEFINFDYEITLLTARTAEGTKFCEPIGHVQIDGDYHESWQPHNMSAELKEQAQDIAKKVTDALGGYGIFGVELFVKGDEVIFSEVSPRPHDTGMVTMITQEMSEFEIHVRAILGLPVSTKLIHPGASHVIKAEINKYAPKYHIEDALKVPNTKLRLFGKPNAKVGRRMGVALAYADSVEKARELAEKCAHAVRIE", "soluble on expression in E. coli": "soluble"}, {"sequence": "MGSDKIHHHHHHMADPQTLDKIIDKTLDTVGKSREQIFEISEQSRNEYVSLEQELQEVRMKVAEIIDQSDRAEVHARFARNRLAEVSKQFHRYSNEEIRKVYEQANELQVKLALLQQEEQQLRDRRDAIERRLLNLKDTIERAEELVGQMTVVYNFLTGDLRQVGEALEDAREKQAFGLQIIQAQEEERRKLSREIHDGPAQMMANVLLRSELVERIYHDKGIDEALKEIRDLRKMVKSSLAEVRRIIYDLRPMALDDLGLIPTLKKYVKTFEEHTGIFVDFKHIGKGERFPEHVEIALFRLVQEALQNTRKHAKASHVHVKIEEQKTKFTVVIKDNGKGFDQTEKKEGSFGLVGMKERVNMLKGQLVIRTKPNDGTTIIISIPITTEE", "soluble on expression in E. coli": "not soluble"}]}]}
